Assay [1] addresses T1, Human CD73 on cells (MDA-MB-231, Jurkat CD73 knock-in, NCI-H322) (human, UniProt P21589 27-549).
T1 sequence: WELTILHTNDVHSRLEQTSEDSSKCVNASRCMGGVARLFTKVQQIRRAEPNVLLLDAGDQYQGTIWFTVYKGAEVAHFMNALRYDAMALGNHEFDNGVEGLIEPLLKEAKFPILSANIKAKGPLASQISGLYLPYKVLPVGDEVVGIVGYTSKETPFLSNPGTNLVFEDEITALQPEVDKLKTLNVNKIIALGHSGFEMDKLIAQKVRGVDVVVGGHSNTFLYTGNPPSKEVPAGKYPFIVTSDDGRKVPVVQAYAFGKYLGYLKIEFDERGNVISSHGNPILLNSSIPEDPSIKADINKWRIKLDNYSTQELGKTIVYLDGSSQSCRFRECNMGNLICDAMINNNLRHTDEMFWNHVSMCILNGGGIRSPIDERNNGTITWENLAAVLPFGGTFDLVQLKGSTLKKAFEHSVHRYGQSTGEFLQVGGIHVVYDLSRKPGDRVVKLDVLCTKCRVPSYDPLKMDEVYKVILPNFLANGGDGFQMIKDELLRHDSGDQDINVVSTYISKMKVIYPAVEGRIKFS
The assay can be described thus: cell-based or functional assay.

A further assay has as its target T2, Cynomolgus CD73 ECD (cynomolgus, UniProt A0A2K5V5U7 27-549).
T2 construct: extracellular domain; also called cyno CD73
T2 sequence: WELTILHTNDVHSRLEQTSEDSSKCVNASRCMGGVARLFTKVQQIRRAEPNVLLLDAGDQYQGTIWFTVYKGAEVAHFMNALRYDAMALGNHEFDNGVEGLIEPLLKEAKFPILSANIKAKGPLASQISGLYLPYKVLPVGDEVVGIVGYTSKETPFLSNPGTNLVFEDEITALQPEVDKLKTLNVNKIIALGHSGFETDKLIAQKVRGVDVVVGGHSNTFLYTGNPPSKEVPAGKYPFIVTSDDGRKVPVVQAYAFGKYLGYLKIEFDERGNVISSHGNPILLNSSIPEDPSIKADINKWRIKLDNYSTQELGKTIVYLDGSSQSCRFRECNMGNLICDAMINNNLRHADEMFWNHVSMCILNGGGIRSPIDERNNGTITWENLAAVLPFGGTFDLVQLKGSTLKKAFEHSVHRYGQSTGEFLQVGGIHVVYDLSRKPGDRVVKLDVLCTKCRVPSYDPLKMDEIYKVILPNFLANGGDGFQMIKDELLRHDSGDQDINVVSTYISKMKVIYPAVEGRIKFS
The assay can be described thus: SPR (Proteon).

For assay [2], the target named is T1, Human CD73 on cells (MDA-MB-231, Jurkat …). Put plainly: flow cytometry, Jurkat (CD73 knock-in) / Jurkat. On the technique in general: Flow cytometry measures light scatter and fluorescence of single cells or particles in a stream.
The target in assay [3] is T3, Cynomolgus CD73 on MK-1 cells (cynomolgus, UniProt A0A2K5V5U7 27-549).
T3 construct: whole, on cells; also called MK-1 (cyno)
T3 sequence: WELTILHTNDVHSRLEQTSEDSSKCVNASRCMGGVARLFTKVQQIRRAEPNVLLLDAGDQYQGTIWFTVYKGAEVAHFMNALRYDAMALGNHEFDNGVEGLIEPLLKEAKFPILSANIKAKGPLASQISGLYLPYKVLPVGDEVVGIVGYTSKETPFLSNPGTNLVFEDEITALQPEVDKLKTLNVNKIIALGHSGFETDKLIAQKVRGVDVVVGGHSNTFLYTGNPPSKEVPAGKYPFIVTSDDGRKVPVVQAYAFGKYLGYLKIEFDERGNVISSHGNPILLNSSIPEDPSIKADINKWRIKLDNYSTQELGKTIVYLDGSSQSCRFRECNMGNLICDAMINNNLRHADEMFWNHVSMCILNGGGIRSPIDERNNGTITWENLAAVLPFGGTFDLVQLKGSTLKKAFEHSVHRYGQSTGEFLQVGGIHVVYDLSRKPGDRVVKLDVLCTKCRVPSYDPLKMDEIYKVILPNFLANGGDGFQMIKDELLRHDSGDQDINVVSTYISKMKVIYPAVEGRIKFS
The assay can be described thus: flow cytometry on cells.

The target in assay [4] is T4, CD73 construct with chicken N- and C-terminal domain sequence with human V144 and N185 knocked in (chicken; human).
T4 chain: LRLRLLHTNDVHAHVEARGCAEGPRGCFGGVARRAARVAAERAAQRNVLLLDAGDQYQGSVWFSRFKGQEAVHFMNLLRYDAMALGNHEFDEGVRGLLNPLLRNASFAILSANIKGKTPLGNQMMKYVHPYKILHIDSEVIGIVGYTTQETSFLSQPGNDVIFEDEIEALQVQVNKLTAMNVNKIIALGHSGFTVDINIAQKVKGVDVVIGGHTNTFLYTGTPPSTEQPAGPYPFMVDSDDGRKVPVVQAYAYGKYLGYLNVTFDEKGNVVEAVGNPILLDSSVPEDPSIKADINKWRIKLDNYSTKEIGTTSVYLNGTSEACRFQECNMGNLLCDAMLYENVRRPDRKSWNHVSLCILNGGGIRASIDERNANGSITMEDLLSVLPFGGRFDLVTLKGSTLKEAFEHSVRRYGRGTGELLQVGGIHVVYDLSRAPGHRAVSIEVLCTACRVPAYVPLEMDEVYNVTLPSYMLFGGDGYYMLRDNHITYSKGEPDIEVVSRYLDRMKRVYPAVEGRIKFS
Put plainly: SPR, MEDI9447 dilutions from 5 nM to 0.3 nM. The source says: FIG. 24C depicts a close-up of the epitope residues located within the N-terminal domain of CD73. The most important residues for binding are shown highlighted and less impactful positions (Y135, K136, and N187) are in pink. The HDX interface is overlaid in blue. FIG. 24D depicts a surface representation showing that the epitope forms a near contiguous binding surface. FIG. 24E depicts a crystal structure of the open conformation of CD73 showing the position of the epitope at the apical, lateral surface of the N-terminal domain. […] In all crystal structures, the CD73 N-terminal domain, linker region, and C-terminal domain are depicted in yellow, orange, and blue, respectively.
Binding of MEDI9447 to wild-type and mutant CD73 proteins was measured by surface plasmon resonance (SPR) using a ProteOn instrument (BioRad). CD73 crude cell supernatant protein samples were diluted to 3 µg/ml in PBS, 0.005% Tween-20, pH 7.4 (BioRad) and immobilized to ~400 RU on a HTG tris-NTA sensor chip (BioRad) pre-activated with 10 mM NiSO₄, 10 mM MES, pH 6.0 (BioRad). […] Sensorgrams were recorded by flowing two-fold dilutions of MEDI9447 prepared in PBS, 0.005% Tween-20, pH 7.4, ranging from 5 nM to 0.31 nM. […] Antibody binding was measured at a flow rate of 100 µL/min with a 3 min association phase and 20 min dissociation phase. […] Binding kinetics were analyzed using the ProteOn data analysis software. […]

The record followed here is patent publication US20230340152A1 (published 2023).

The Kd is the constant that tells how readily two partners part at equilibrium. A high value points to a looser complex.

B1: MEDI9447 (antibody, human IgG1, lambda, V domains shown)
VH: EVQLLESGGGLVQPGGSLRLSCAASGFTFSSYAYSWVRQAPGKGLEWVSAISGSGGRTYYADSVKGRFTISRDNSKNTLYLQMNSLRAEDTAVYYCARLGYGRVDEWGRGTLVTVSS
VL: QSVLTQPPSASGTPGQRVTISCSGSLSNIGRNPVNWYQQLPGTAPKLLIYLDNLRLSGVPDRFSGSKSGTSASLAISGLQSEDEADYYCATWDDSHPGWTFGGGTKLTVLG
notes: Human IgG1-TM (L234F, L235E, P331S), lambda light chain; also called clone 10.3 antibody; 73combo3
Regarding B1, in assay [1], the “FabZAP internalization, EC50, MDA-MB-231” value came to 3.5 pM and the “FabZAP internalization, maximum toxicity, MDA-MB-231” value was determined as 97%. In the assay with Cynomolgus CD73 ECD, this molecule registered a Kd of 7 pM. The “Mean Fluorescence Intensity Ratio (MFIR)” value in assay [2] came out at 7.9. Further, the dissociation constant Kd in assay [3] came to 84 pM. The “fold of the KD for wild-type CD73” value in assay [4] is less than 20 fold.
